From patent US20260166140A1, “Combinations Involving Epidermal Growth Factor Receptor Tyrosine Kinase Inhibitors For the Treatment of Cancer” (AstraZeneca AB, priority 2022, published 2026)

How the values were obtained:
[1] = test system: MEDI-PANC-08^LUC PDX model; assay: Orthotopic luciferase expressing pancreatic PDX model efficacy; format: in vivo, mice; conditions: orthotopic MEDI-PANC-08^LUC; RAA2/B09 ADC 2 and 3 mg/kg Q1W×4; Gemcitabine 75 mg/kg; isotype control 3 mg/kg Q1W×4
Method: The luciferase expressing PDX model (MEDI-PANC-08^LUC) was grown subcutaneously in NSG seed mice and at a volume of 800-1200 mm^3 the tumors were harvested and cut into fragments of approximately 2 mm^3. The tumor fragments were subsequently sutured to the pancreas of NSG mice (Day Zero). Luciferase signal was determined weekly using the IVIS Spectrum In vivo Imaging system. Briefly, 10 minutes prior to imaging, 200 ul of luciferin dissolved in DPBS (15 mg/ml) was injected intra-peritoneally (i.p.). The mice were anesthetized under 3% isoflurane, laid on their right side and luminescence measured. Fourteen days after tumor implant, when luminescent signal was clearly detectable, the mice were randomized into their respective groups based on the luminescence. […] Luminescence was measured weekly. Study endpoints included body weight loss, deterioration of body condition and lethargy. Data were analyzed using the Living Image software (Perkin Elmer) and plotted as Average Radiance [p/s/cm2/sr] against time.

Cynomolgus monkey EGFR [2] = assay: SPR (BIAcore T200) antibody capture kinetics; format: binding
Method: (§1) Mouse anti-human IgG was immobilized on a CM4 sensor chip with a final surface density of ˜2000 resonance units (RUs). A reference flow cell surface was also prepared on this sensor chip using identical immobilization protocol. Test and control article antibodies were prepared at 5-20 nM in instrument buffer (HBS-EP buffer; 0.01M HEPES, pH 7.4, 0.15M NaCl, 3 mM EDTA, and 0.005% P-20), along with 3-fold serial dilutions of purified EGFR (0.27-200 nM human, 0.4-900 nM cyno, and 4-1000 nM murine) or cMET proteins (0.27 to 66 nM human and 0.27-22 nM cyno) in instrument buffer. A sequential approach was utilized for kinetic measurements. Antibodies were first injected over the capture surface, at a flow rate of 10 μL/minute. Once the binding of the captured antibody stabilized, a single concentration of the analyte was injected over both capture and reference surfaces, at a flow rate of 75 μL/minute. The resulting binding response curves yielded the association phase data. Following the injection of analyte, the flow was then switched back to instrument buffer for 15 minutes to permit the collection of dissociation phase data, followed by a 1-minute pulse of 10 mM glycine, pH 1.5, to regenerate the antibody-captured surface on the chip. Binding responses against test and control article antibodies were recorded from duplicate injections of each concentration of analyte. In addition, several buffer injections were interspersed throughout the injection series. Select buffer injections were used along with the reference cell responses to correct the raw data sets for injection artifacts and/or nonspecific binding interactions, commonly referred to as “double referencing”. Corrected binding data were globally fit to a 1:1 binding model (Biacore T200 Evaluation software 2.0, GE Healthcare, Pittsburgh, PA).

Cynomolgus monkey cMET [3] = assay: SPR (BIAcore T200) antibody capture kinetics; format: binding
Method: as §1

Human EGFR [4] = molecular target: T1, Human EGFR (Homo sapiens, UniProt P00533); assay: SPR (BIAcore T200) antibody capture kinetics; format: binding
Method: as §1

Human cMET [5] = molecular target: T2, Human cMET (Homo sapiens, UniProt P08581); assay: SPR (BIAcore T200) antibody capture kinetics; format: binding
Method: as §1

Mouse EGFR [6] = molecular target: T3, Mouse EGFR (Mus musculus, UniProt Q01279); assay: SPR (BIAcore T200) antibody capture kinetics; format: binding
T3 construct: purchased SinoBiological 51091-M08H
Method: as §1

Mouse cMET = molecular target: T4, Mouse cMET (Mus musculus, UniProt P16056); assay: SPR (BIAcore T200) antibody capture kinetics; format: binding
T4 construct: purchased SinoBiological 50622-M08H
Method: as §1

Cynomolgus monkey cMET [7] = assay: ELISA species cross reactivity; format: binding
Method: (§2) Specificity for EGFR and cMET species paralogs and closely related family members was determined by ELISA. Briefly, antigen solutions were prepared in PBS at 1 μg/mL and 50 microliters was coated onto half area ELISA assay plates. Plates were washed and blocked with 1% BSA in PBS containing 0.005% Tween-20 (PBS-T) for one hour at room temperature. The wells were washed 4 times in PBS-T. As set out in FIG. 3, the primary antibodies used where: R374 (a non-binding IgG1 isotype control antibody), B09 (anti-cMET antibody), QD6 (anti-EGFR antibody), RAA22 (anti-EGFR antibody), QD6/B09 (bispecific EGFR/c-MET DuetMAb), RAA22/B09 (bispecific EGFR/c-MET DuetMAb), PaniX (anti-EGFR antibody), MetMab (anti-cMET antibody) and Mab11311 (anti-HER4 antibody). Wells were incubated with 50 microliters of the indicated primary antibodies diluted in PBS-T in a 1:3 dilution series, starting at 10 μg/mL and ending at 0.002 μg/mL, except for the HER4 binding mAb control, MAB1131, for which the series started at 1 μg/mL. The wells were washed 4 times in PBS-T, then 50 μl of goat anti-human Fab HRP-labeled secondary antibody, diluted 1:5000 in PBS-T, was added to each well and incubated for one hour at room temperature. […] 50 microliters of TMB stop solution was added to all wells and the absorbance was read at 450 nm on a SpectraMax M5 microplate reader. Data were analyzed in the SoftMax Pro 5 software and plotted using GraphPad Prism 7 graphing software.
(§3) To determine the species cross reactivity, ELISA assays were carried out as described above. […] There was no detectable binding of any of the antibodies to mouse cMET.

Human cMET [8] = molecular target: T2, Human cMET; assay: ELISA species cross reactivity; format: binding
Method: as §2, §3

Ron (CD136) = Ron (CD136) (Homo sapiens, UniProt Q04912); assay: ELISA family specificity; format: binding
Method: as §2

Semaphorin 3a = assay: ELISA family specificity; format: binding
Method: as §2

[9] = molecular target: human cMET receptor with the HGF ligand (Homo sapiens, UniProt P08581); assay: HGF:cMET HTRF ligand receptor inhibitory binding assay; conditions: purified IgG2 antibodies
Description: cMET-specific scFv antibodies were isolated from a large naïve human scFv phage display library in a series of repeated panning selection cycles on recombinant mammalian expressed biotinylated monomeric human cMET (MedImmune) essentially as described (Vaughan, 1996). ScFvs from the round 2 of the selection output were expressed in the bacterial periplasm and screened for their ability to inhibit the binding of the human cMET receptor with the HGF ligand in a HGF:cMET HTRF® (Homogeneous Time-Resolved Fluorescence) ligand receptor inhibitory binding assay. […] Unique genes were then converted to human immunoglobulin G2 (IgG2) antibodies and produced in mammalian cells essentially as described (Persic; 1997). The purified antibodies were then ranked based on their inhibitory effect in the HGF:cMET HTRF® binding assay.
To minimize potential immunogenicity, non-Vernier framework residues (Foote and Winter 1992) in the variable framework regions of 0021U3-B09 were targeted specifically and altered to match the closest human germline sequence. In the VH region, seven amino acid residues were mutated to match the reference human germline sequence IGHV1-8*01. In the VL region, three residues were mutated to match the reference human germline sequence IGKV1-5*03. All residues in VH and VL regions were successfully changed to the germline residues without loss of activity. […]

Cynomolgus monkey EGFR [10] = assay: ELISA species cross reactivity; format: binding
Method: as §2, §3

Human EGFR [11] = molecular target: T1, Human EGFR; assay: ELISA species cross reactivity; format: binding; conditions: antibody 10 to 0.002 μg/mL
Method: as §2, §3

Mouse EGFR [12] = molecular target: T3, Mouse EGFR; assay: ELISA species cross reactivity; format: binding
Method: as §2, §3

HER2 = HER2 (Homo sapiens, UniProt P04626); assay: ELISA family specificity; format: binding
Method: as §2

HER3 = HER3 (Homo sapiens, UniProt P21860); assay: ELISA family specificity; format: binding
Method: as §2

HER4 = HER4 (Homo sapiens, UniProt Q15303); assay: ELISA family specificity; format: binding
Method: as §2

T2 sequence (P08581 25-932): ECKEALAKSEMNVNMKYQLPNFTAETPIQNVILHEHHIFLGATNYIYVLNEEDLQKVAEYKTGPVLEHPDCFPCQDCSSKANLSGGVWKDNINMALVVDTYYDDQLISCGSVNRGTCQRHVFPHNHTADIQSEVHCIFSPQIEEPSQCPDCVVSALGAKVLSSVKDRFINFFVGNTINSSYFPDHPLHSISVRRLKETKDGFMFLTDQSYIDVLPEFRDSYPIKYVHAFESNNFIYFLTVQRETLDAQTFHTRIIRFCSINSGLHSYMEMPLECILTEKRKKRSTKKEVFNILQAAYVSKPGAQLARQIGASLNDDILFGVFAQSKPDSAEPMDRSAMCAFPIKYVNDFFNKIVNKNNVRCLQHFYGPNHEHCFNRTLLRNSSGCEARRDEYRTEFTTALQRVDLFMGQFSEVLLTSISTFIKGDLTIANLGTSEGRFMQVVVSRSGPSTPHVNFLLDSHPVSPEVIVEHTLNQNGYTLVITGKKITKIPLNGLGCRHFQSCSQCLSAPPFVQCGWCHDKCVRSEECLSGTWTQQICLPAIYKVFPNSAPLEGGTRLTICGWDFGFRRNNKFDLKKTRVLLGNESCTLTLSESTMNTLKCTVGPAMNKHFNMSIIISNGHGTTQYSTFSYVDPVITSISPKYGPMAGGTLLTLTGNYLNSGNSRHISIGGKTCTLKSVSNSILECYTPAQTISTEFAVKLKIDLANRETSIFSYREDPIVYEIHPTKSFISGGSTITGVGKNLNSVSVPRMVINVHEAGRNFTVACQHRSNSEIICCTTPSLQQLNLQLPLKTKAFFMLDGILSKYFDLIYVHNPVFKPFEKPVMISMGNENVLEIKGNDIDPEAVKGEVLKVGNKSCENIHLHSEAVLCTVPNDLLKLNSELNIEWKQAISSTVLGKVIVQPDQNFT
Cynomolgus monkey cMET, sequence (as listed by the source): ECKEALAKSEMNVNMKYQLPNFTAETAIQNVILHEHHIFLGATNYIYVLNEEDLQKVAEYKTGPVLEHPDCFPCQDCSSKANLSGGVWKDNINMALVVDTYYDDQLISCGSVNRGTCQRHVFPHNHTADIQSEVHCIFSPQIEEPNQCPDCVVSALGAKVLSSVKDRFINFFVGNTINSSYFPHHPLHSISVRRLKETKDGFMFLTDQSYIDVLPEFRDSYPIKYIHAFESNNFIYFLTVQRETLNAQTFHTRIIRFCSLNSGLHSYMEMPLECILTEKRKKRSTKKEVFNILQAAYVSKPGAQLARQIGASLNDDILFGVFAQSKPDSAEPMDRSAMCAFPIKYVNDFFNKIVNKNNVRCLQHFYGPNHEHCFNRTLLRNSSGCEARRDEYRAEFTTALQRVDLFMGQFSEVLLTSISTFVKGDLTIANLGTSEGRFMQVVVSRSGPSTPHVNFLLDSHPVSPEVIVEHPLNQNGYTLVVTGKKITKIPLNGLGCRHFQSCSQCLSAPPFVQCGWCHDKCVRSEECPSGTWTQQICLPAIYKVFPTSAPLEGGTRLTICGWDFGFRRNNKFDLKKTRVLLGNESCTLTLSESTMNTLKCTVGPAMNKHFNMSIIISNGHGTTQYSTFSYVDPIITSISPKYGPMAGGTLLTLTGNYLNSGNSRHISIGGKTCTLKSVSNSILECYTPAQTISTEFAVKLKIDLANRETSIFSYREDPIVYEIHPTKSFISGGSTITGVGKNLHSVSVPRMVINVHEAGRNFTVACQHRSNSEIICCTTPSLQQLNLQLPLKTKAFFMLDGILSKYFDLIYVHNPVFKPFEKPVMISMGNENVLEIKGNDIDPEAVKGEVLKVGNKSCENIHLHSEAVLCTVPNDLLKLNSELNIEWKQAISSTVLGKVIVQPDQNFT
T4 sequence (P16056 25-929 limits assumed): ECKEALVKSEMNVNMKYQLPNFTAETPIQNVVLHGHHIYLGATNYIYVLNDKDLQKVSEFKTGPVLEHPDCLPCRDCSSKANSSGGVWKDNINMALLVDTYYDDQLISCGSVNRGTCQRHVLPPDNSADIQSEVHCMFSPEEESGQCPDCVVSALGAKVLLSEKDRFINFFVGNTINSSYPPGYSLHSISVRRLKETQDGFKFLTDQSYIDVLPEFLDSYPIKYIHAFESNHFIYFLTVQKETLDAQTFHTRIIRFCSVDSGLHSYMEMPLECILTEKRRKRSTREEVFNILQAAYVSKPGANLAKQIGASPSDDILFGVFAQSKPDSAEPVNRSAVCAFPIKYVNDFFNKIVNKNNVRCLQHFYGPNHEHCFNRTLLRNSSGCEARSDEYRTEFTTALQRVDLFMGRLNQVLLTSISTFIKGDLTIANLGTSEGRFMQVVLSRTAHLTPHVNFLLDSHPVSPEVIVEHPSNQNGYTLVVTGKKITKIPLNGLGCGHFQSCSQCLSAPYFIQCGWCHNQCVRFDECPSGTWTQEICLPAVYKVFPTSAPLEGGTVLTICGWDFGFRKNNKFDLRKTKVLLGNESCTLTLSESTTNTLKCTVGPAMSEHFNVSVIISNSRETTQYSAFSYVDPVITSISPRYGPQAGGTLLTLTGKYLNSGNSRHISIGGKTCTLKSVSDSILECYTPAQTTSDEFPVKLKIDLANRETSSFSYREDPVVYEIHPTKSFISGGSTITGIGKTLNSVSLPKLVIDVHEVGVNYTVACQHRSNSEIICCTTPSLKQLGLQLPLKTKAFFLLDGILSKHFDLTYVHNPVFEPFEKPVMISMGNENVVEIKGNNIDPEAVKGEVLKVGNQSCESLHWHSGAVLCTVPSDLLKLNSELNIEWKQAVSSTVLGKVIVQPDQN
HER4, sequence (Q15303 26-1308, species assumed): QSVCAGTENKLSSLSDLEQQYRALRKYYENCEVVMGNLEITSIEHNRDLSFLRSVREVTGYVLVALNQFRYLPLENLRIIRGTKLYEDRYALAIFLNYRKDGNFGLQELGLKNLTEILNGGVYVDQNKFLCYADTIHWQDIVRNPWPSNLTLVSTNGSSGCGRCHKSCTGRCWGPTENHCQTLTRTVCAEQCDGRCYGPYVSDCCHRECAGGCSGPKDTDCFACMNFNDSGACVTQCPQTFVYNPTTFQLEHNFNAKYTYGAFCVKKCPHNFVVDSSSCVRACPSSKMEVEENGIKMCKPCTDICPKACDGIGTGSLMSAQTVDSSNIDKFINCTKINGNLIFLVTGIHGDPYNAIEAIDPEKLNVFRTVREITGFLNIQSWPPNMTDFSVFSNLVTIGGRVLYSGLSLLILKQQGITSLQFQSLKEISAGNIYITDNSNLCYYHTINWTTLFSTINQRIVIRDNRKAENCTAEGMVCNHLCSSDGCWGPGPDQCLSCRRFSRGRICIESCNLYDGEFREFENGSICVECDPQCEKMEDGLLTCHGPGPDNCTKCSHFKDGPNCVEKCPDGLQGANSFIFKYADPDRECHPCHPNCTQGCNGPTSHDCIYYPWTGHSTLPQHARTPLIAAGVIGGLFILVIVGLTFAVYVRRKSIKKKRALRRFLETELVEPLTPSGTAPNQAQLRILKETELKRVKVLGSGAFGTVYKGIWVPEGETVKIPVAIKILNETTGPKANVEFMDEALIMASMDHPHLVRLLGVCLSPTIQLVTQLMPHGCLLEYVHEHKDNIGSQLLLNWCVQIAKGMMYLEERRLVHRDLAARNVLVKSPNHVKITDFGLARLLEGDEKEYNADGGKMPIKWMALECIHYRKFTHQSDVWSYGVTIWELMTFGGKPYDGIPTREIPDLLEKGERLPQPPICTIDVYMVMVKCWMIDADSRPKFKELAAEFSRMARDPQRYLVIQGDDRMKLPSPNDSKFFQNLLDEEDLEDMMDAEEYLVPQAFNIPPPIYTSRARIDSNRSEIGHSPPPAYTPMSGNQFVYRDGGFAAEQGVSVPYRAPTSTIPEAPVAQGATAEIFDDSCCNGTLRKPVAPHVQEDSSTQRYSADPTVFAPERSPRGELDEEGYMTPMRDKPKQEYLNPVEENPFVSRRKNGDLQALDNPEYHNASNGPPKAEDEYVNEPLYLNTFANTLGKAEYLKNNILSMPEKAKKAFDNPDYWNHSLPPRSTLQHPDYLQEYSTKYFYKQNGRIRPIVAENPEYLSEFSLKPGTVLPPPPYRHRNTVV
human cMET receptor with the HGF ligand, sequence (P08581 25-932 limits assumed): as the sequence (P08581 25-932) above

Molecule: Nc1ccn([C@@H]2O[C@H](CO)[C@@H](O)C2(F)F)c(=O)n1 [Gemcitabine]
- luminescent signal [1]: initial reduction in the luminescent signal reaching a nadir around day 21, after which the signal increased over time

B1: B09-57 IgG: affinity optimized, germlined anti-cMET antibody derived from 0021U3-B09, VH SEQ ID NO: 38, VL SEQ ID NO: 40 (antibody, V domains shown)
VH: QVQLVQSGAEVKKPGASVKVSCKASGYTFTDYYIHWVRQATGQGLEWMGWMNPNSGNTGYAQKFQGRVTMTRDTSISTAYMELSSLRSEDTAVYYCARGQGYTHSWGQGTMVTVSS
VL: DIQMTQSPSTLSASVGDRVTITCRASEGIYHWLAWYQQKPGKAPKLLIYKASSLASGVPSRFSGSGSGTEFTLTISSLQPDDFATYYCQQYSNYPPTFGGGTKLEIK
- KD (Cynomolgus monkey EGFR [2]; koff/kon): No binding detected at 200 nM
- Koff (Cynomolgus monkey cMET [3]; 25° C.): 0.00194 s⁻¹
- Kon (Cynomolgus monkey cMET [3]; 25° C.): 1.04e+06 M⁻¹ s⁻¹
- KD (Human EGFR [4]; KD calculated as koff/kon): No binding detected at 200 nM
- Koff (Human cMET [5]; 25° C.): 0.000882 s⁻¹
- Kon (Human cMET [5]; 25° C.): 563000 M⁻¹ s⁻¹
- KD (Mouse EGFR [6]; koff/kon): No binding detected at 200 nM
- KD (Mouse cMET): No binding detected at 200 nM
- ELISA binding (Cynomolgus monkey cMET [7]): comparable binding
- ELISA binding (Human cMET [8]): comparable binding
- ELISA binding (Ron (CD136)): no binding
- ELISA binding (Semaphorin 3a): no binding
- rank by inhibitory effect in the HGF:cMET HTRF binding assay [9]: most potent antibody

B2: RAA22 IgG: low affinity anti-EGFR IgG1 antibody clone, VH SEQ ID NO: 16, VL SEQ ID NO: 20 (antibody, V domains shown)
VH: QVQLVQSGAEVKKPGSSVKVSCKASGGTFSDNDFSWVRQAPGQGLEWMGAIVAVFRTETYAQKFQDRVKITADISTRTTYMELSSLRSEDTAVYYCARRLMSAISGPGAPLLMWGQGTLVTVSS
VL: QSALTQPRSVSGSPGQSVTISCTGTSSDVGGYNYVSWYQQHPGKAPKLMIYDVSKRPSGVPDRFSGSKSGNTASLTISGLQAEDEADYYCSSYTSSDTLEIFGGGTKLTVL
- Koff (Cynomolgus monkey EGFR [2]; 25° C.): 0.00601 s⁻¹
- Kon (Cynomolgus monkey EGFR [2]; 25° C.): 35400 M⁻¹ s⁻¹
- KD (Cynomolgus monkey cMET [3]; koff/kon): No binding detected at 200 nM
- Koff (Human EGFR [4]; 25° C.): 0.00206 s⁻¹
- Kon (Human EGFR [4]; 25° C., 1:1 binding model): 44100 M⁻¹ s⁻¹
- KD (Human cMET [5]; koff/kon): No binding detected at 200 nM
- Koff (Mouse EGFR [6]; 25° C.): 0.019 s⁻¹
- Kon (Mouse EGFR [6]; 25° C.): 40300 M⁻¹ s⁻¹
- KD (Mouse cMET): No binding detected at 200 nM
- ELISA binding (Cynomolgus monkey EGFR [10]): bound more weakly
- ELISA binding (Human EGFR [11]): bound more weakly
- ELISA binding (Mouse EGFR [12]): weak, but detectable
- ELISA binding (HER2): no binding
- ELISA binding (HER3): no binding
- ELISA binding (HER4): no binding
